# Reference: patent US20170304361A1
# Target: Insulin Receptor (Isoform B by the title of Table 1; 'the A isoform of the insulin receptor' by the text) (UniProt P06213)
# Test: competitive displacement of radiolabelled tracer; relative to wild-type human insulin
row,relative affinity [%],Substance
1,52,"GluA8 derivative of AspB10, 2F-PheB24, LysB28, ProB29-human insulin (T-0338) (ligand)"
2,43,"GluA8 derivative of AspB10, ortho-fluoro-PheB24, GluB29-insulin (T-0339) (ligand)"
3,44,"GluA8, GlyA21 derivative of AspB10, 2F-PheB24, GluB29-human insulin (T-0348) (ligand)"
4,59,"GlyA21 derivative of AspB10, 2F-PheB24, LysB28, ProB29-human insulin (T-0346) (ligand)"
5,42,"GlyA21 derivative of AspB10, ortho-fluoro-PheB24, GluB29-insulin (T-0347) (ligand)"
